Kd data for one molecule are collected here from US20210355212A1 (published 2021).

A word on the Kd: it is the equilibrium constant for the complex coming apart. A high value points to weaker binding.

For the experiment, the target named is T1, mouse C-KIT (SB, Lot #LC05DE2304) (mouse, UniProt P05532 25-523).
T1 chain: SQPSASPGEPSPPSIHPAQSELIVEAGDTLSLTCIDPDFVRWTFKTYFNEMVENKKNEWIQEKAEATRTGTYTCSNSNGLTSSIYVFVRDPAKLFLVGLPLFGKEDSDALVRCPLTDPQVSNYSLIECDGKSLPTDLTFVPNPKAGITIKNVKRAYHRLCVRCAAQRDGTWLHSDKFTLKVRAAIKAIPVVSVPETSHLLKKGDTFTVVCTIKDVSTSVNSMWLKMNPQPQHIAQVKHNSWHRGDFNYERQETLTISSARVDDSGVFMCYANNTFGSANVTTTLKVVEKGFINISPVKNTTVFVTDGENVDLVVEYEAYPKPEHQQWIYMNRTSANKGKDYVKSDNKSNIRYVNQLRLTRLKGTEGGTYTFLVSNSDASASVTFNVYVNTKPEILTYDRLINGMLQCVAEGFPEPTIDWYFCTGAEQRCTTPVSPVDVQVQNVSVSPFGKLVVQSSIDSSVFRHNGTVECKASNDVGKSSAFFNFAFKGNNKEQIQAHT
As to the kind of experiment: SPR.

B1: 2G4 antibody (antibody, V domains shown)
VH: QVQLVESGGGVVQPGRSLRLSCAASGFTFSRYGMHWVRQAPGKGLEWVAVIWYDGTNKDYTDSVRGRFTISRDNSKNTLYLQMNSLRAEDTAVYYCAREDWAEAFDMWGQGTTVTVSS
VL: not shown
B1: binding was characterised by a dissociation constant (Kd) of 11.5 nM.
